Data on 72 sequences can be found in the supplement of paper PMC10567573.

A short description of this data set: protein stability index of a GFP-peptide fusion (GPS, HEK-293T) (PSI 1-6); higher = more stable.
Setting [1] is: treatment: DMSO, c terminus: a fixed tail appended.
[2] abbreviates: treatment: MLN4924 1 uM, 8 h, c terminus: a fixed tail appended.

± gives the standard deviation.
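Note: 24-mer peptide tiles fused after GFP, lentivirally expressed, FACS-sorted into six equal bins by GFP/DsRed ratio, decoded by Illumina sequencing, PSI is the read-weighted mean bin number.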

For MEQPTSSTNGEKTKSPCESNNKKN [SPANXN3], the protein stability index by setting is: under setting [1], 5.32 ± 0.33; under setting [2], 4.92 ± 0.85.
In the same order, the values of MGGTQQQFVEGVRMEEIVEGCTGA [CTNNB1] are 5.09 ± 0.15 and 5.1 ± 0.072.
The corresponding values for MGNLVMFRKDSVLNILIQSLDWET [INTS3] are 2.68 ± 0.64 and 2.82 ± 0.45.
In the same order, the values of MIIVAISPKYKQDVEGAESQLDED [TRAF3IP2] are 2.52 ± 0.14 and 2.26 ± 0.25.
On to MIRESETKKGFYSLSVRHRQVKHY [SLA], for which the protein stability index is, setting by setting: under setting [1], 2.59 ± 0.44; under setting [2], 2.94 ± 0.13.
As to MLENYSNLVSVGYQAGKPDALTKL [ZNF649], the protein stability index reads like this: under setting [1], 2.72 ± 0.2; under setting [2], 2.83 ± 0.18.
In turn, MLPGVGVFGTSLTARVIIPLLKDE [GFOD1] gave a protein stability index under setting [1] of 2.17 ± 0.19 and a protein stability index under setting [2] of 2.02 ± 0.16.
In the same order, the values of MLTVMTKYQANITETQRLGLAMAL [FANCE] are 2.52 ± 0.43 and 2.48 ± 0.25.
In the same order, the values of MNGDSRAAVVTSPPPTTAPHKERY [ADD1] are 4.89 ± 0.26 and 5.07 ± 0.22.
Sequence MNYMPGTASLIEDIDKKHLVLLRD [LSM1] gave a protein stability index under setting [1] of 3.15 ± 0.16 and a protein stability index under setting [2] of 3.27 ± 0.32.
The corresponding values for MQAAEVFSQKHFPEVVQHEEFILL [KLHL12] are 2.17 ± 0.48 and 2.44 ± 0.73.
The corresponding values for MRAAALCDKHSKLFEEPEDPSNRS [PPP2R2C] are 5.14 ± 0.12 and 5.17 ± 0.12.
Turning to MRGPEPGPQPTMEGDVLDTLEALG [FAM98B], the protein stability index reads like this: under setting [1], 5.19 ± 0.34; under setting [2], 5.087 ± 0.039.
The corresponding values for MSPYLVPDTQALCHHLPVIRQLAT [SMG5] are 2.3 ± 0.28 and 2.52 ± 0.22.
The corresponding values for MSQTVQRMLVAASWACAFTNALTH [OR3A1] are 3.3 ± 0.22 and 3.31 ± 0.23.
MTSMSAELKMRAIQAEERLDMEKR [LRRC45]: the protein stability index turned out to be 4.65 ± 0.19 under setting [1] and 4.9 ± 0.16 under setting [2].
The corresponding values for MVHINRALKLIIRLFLVEDLVDSL [RTN3] are 2.88 ± 0.31 and 2.92 ± 0.53.
The corresponding values for MVPISKQPKEKIQAIIESCSRQFP [NOL4L] are 3.34 ± 0.11 and 3.38 ± 0.47.
For MVSALRGAPLIRVHSSPVSSPSVS [SPACA3], the protein stability index turned out to be 2.85 ± 0.39 under setting [1] and 3.08 ± 0.3 under setting [2].
For MVVIHKEIPTGKKDHECSECGKTF [ZNF232], the protein stability index is, setting by setting: under setting [1], 3.07 ± 0.4; under setting [2], 3.28 ± 0.2.
As to MWAHSMTVQDYQDLIDRGWRRSGK [ATE1], the protein stability index by setting is: under setting [1], 3.11 ± 0.14; under setting [2], 3.27 ± 0.24.
In turn, NCSIGPNVSLGPGVVVEDGVCIRR [GMPPB] came in with a protein stability index under setting [1] of 4.29 ± 0.3 and a protein stability index under setting [2] of 4.393 ± 0.043.
In the same order, the values of NDFGVFLCKLFPFLQKSSVGITVL [EDNRA] are 2.88 ± 0.52 and 3.26 ± 0.73.
NEIFTQLYRTLFSVINNGHNQKVH [PDS5B]: the protein stability index was 2.24 ± 0.47 under setting [1] and 2.47 ± 0.56 under setting [2].
In the same order, the values of NELDSGFRLLNLKNDSLRKRYDGL [TSN] are 3.21 ± 0.28 and 3.43 ± 0.36.
In the same order, the values of NGADVNIQSKDGKSPLHMTAVHGR [ANKRD44] are 4.44 ± 0.22 and 4.46 ± 0.11.
The corresponding values for NIKANDYANAVLQALSNVPPLRNY [USP39] are 2.18 ± 0.21 and 2.03 ± 0.32.
Regarding NIPQMADTLFERATNSSWVVVFKA [SNAP91], the protein stability index stood at 2.27 ± 0.65 under setting [1] and 2.3 ± 0.82 under setting [2].
Turning to NIQETHRLYRLKLEELTKLQNNCT [TMEM120A], the protein stability index runs as follows: under setting [1], 2.92 ± 0.19; under setting [2], 3.08 ± 0.29.
For NITVQKKVSQWWERLTKQEKRPLF [HACD3], the protein stability index was determined as 2.65 ± 0.18 under setting [1] and 2.91 ± 0.13 under setting [2].
Turning to NKGTETDNDPSCVHPIIKRRQCRP [PHTF1], the protein stability index was determined as 4.88 ± 0.085 under setting [1] and 4.81 ± 0.21 under setting [2].
In the same order, the values of NLKWLDLKDNPLDPVLAKVAGDCL [LRRC59] are 3.21 ± 0.26 and 3.08 ± 0.19.
For the sequence NLQSLKTPTLKVFMHENLYFTNRK [DCAF4], the protein stability index is, setting by setting: under setting [1], 2.73 ± 0.26; under setting [2], 2.65 ± 0.2.
NLRRHVPDLESGSESGADTISVNQ [DLC1] yielded a protein stability index under setting [1] of 5.29 ± 0.27 and a protein stability index under setting [2] of 5.25 ± 0.28.
Consider NMAGVTFRKFIPKCSKIVIDFDSI [DCTD], for which the protein stability index turned out to be 2.5 ± 0.39 under setting [1] and 1.95 ± 0.32 under setting [2].
In the same order, the values of NNILISAVLPTAFRVAKKRAPKVL [GDAP1] are 2.34 ± 0.24 and 2.48 ± 0.34.
In the same order, the values of NNMNAVNLFFAWIKIFKYISFNKT [PKD2L1] are 2.81 ± 0.46 and 2.58 ± 0.54.
In turn, NNTGKNLELKFVSSLRRQFEFSVD [TENT5D] yielded a protein stability index under setting [1] of 2.75 ± 0.42 and a protein stability index under setting [2] of 2.75 ± 0.4.
In turn, NPEVGIFVSIAQSEQESLLQQAQA [SMG5] returned a protein stability index under setting [1] of 4.09 ± 0.3 and a protein stability index under setting [2] of 4.23 ± 0.24.
The corresponding values for NPIIYSFRNPDVQSAIWRMLTGRR [OR3A1] are 2.51 ± 0.41 and 2.58 ± 0.36.
The corresponding values for NPLIASSFSLVKLVLRRQLKNKCC [C22orf31] are 2.25 ± 0.35 and 2.18 ± 0.32.
NQRIIHRDMKPDNILLDEHDTWLS [STK32A] came in with a protein stability index under setting [1] of 3.71 ± 0.33 and a protein stability index under setting [2] of 3.63 ± 0.27.
The corresponding values for NRVSAIIFSLATEWVISTGHDKCV [WDFY1] are 2.96 ± 0.23 and 2.89 ± 0.4.
In the same order, the values of NSQESRSDLEDMEEEEGTRSPTLE [SMG5] are 5.56 ± 0.16 and 5.44 ± 0.23.
In the same order, the values of NSRVDDTFWASWRAFAQIGPARSG [MIR22HG] are 2.6 ± 0.32 and 2.79 ± 0.35.
Consider NVEDASHEEVVEKVKKSGSRVMFL [PDZK1], for which the protein stability index under setting [1] came out at 4.45 ± 0.2.
NVNRLNESFRDLQLRLLQAPLQAD [SCARA5] had a protein stability index under setting [1] of 3.3 ± 0.38 and a protein stability index under setting [2] of 3.33 ± 0.34.
Turning to PALEEAPDSHQKRPQHSHSNKKRP [ELOA2], the protein stability index reads like this: under setting [1], 5.52 ± 0.25; under setting [2], 5.33 ± 0.46.
As for PAMAASKALGSDLDSSLASLVGNL [SNAP91], the protein stability index runs as follows: under setting [1], 4.06 ± 0.34; under setting [2], 3.95 ± 0.34.
The corresponding values for PANSETSDLTLYLVVAVAAVSCVF [PCDHGA10] are 2.69 ± 0.61 and 2.59 ± 0.54.
For the sequence PARLLLQALQAGPEGARRGLGVLR [FANCE], the protein stability index runs as follows: under setting [1], 2.67 ± 0.16; under setting [2], 2.82 ± 0.34.
In the same order, the values of PATALGTASYPSDGCGADGLRSRV [NOL4L] are 4.39 ± 0.27 and 4.55 ± 0.26.
In the same order, the values of PDITSSRYRGLPAPGPSPADKKRS [WAS] are 5.22 ± 0.097 and 5.271 ± 0.036.
PDRGSPEYRQRRERNNIAVRKSRD [CEBPD]: the protein stability index under setting [1] was 5.03 ± 0.37 and the protein stability index under setting [2] stood at 5.35 ± 0.12.
Take PEAEENKQIIRKHAQTFVALCATD [CCND1]: the protein stability index was 3.4 ± 0.73 under setting [1] and 3.81 ± 0.71 under setting [2].
On to PEFIKVRENLRRIATLTSEEREL [FAM107A], for which the protein stability index runs as follows: (treatment: DMSO, c terminus: native) 2.66 ± 0.5; (treatment: MLN4924 1 uM, 8 h, c terminus: native) 3.35 ± 0.55.
PEIQKVRAQEREQIKALNNKFASF [KRT71] displayed a protein stability index under setting [1] of 3.78 ± 0.32 and a protein stability index under setting [2] of 3.86 ± 0.44.
In the same order, the values of PEKASELSQVELQAAPGALPVSSP [TRIM55] are 5.21 ± 0.38 and 5.49 ± 0.24.
In the same order, the values of PFNKVQSARFWIPGEPNNAGNNEH [CD207] are 3.92 ± 0.35 and 3.93 ± 0.17.
Regarding PFSFGTLSSWELEAWYEDLQEVLS [DDIT3], the protein stability index worked out at 2.37 ± 0.54 under setting [1] and 2.78 ± 0.21 under setting [2].
As for PGAPRGNPPKASAAPDCTPSLEAG [MYCL], the protein stability index reads like this: under setting [1], 5.28 ± 0.34; under setting [2], 5.36 ± 0.17.
In the same order, the values of PGGETEALTRLERHLERKAWVANF [CRY1] are 3.04 ± 0.36 and 3.07 ± 0.39.
In the same order, the values of PGGGRGALLDQIRQGIQLNKTPGA [WAS] are 5.3 ± 0.1 and 4.99 ± 0.47.
PGPSPDVQLATLAQRVKEVLPHVP [AUP1] had a protein stability index under setting [1] of 4.14 ± 0.32 and a protein stability index under setting [2] of 4.14 ± 0.13.
Consider PGSFWGLCQVAQEALASAGASCCG [VENTX], for which the protein stability index runs as follows: under setting [1], 2.41 ± 0.4; under setting [2], 2.54 ± 0.22.
In the same order, the values of PGTSFKDSTKTAFHRSQTLSYRNG [EFHC1] are 3.68 ± 0.1 and 3.89 ± 0.11.
In turn, PHFLRVPCWKITLFVIVPVLGPLV [MOG] showed a protein stability index under setting [1] of 2.9 ± 0.65 and a protein stability index under setting [2] of 2.85 ± 0.3.
As for PHQCSECGRAFSRKSLLVVHQRTH [ZNF649], the protein stability index came out at 4.93 ± 0.2 under setting [1] and 5.12 ± 0.16 under setting [2].
In the same order, the values of PIETLIRDMLLSGSSFNWPYMAIQ [NR2F2] are 3.34 ± 0.18 and 2.95 ± 0.62.
In the same order, the values of PKGEPGSKQSPPMASSPIQPRKGG [FBF1] are 5.33 ± 0.1 and 5.38 ± 0.091.
Take PLGNTPMMNQSMMGMNMNIGMSAA [CLINT1]: the protein stability index by setting is: under setting [1], 3.07 ± 0.21; under setting [2], 2.9 ± 0.24.
The corresponding values for PLQFLGLFENSLCRLTHIPAYKVS [ZER1] are 2.02 ± 0.55 and 2.08 ± 0.5.
